{"source": "patent US20230363418A1", "about": "“COMPOSITION FOR PREVENTING OR TREATING NEUROPSYCHOLOGIC DISEASE, COMPRISING MANF” (CEFO CO., LTD., priority 2020, published 2023)", "key": {"[1]": {"system": "proliferating neural progenitor cells", "test": "Immunoblotting of Sox2 and DCX in proliferating neural progenitor cells", "assay_type": "cell-based, rat", "conditions": "MANF 20 ng/ml, proliferation condition", "method": "Specifically, hippocampal-derived neural stem cells were isolated from the brain of E16 rat embryos. Hippocampal ridges were minced from the embryonic forebrains of E16 rats using sterile fine tweezers under a dissecting microscope. The tissues were collected, mechanically separated using a pipette in Ca^2+/Mg^2+-freeHBSS (Invitrogen) solution, and planted at 19,000 cells/cm^2 in 35 mm culture dishes precoated with 15 µg/ml poly-L-ornithine and 1 µg/ml fibronectin (Sigma). The cells were cultured under the condition of 5% CO2 for 3 days using a serum-free N2 medium (medium for proliferation) supplemented with 10 ng/mL basic fibroblast growth factor(bFGF, Invitrogen). Thereafter, the cells were removed using 0.05% trypsin/EDTA (ethylene-diamine-tetraacetic acid), and neural progenitor cells were planted on a 12 mm glass coverglass (Belco) for immunostaining and on a 100 mm dish for immunoblotting and cultured in N2 medium for proliferation containing bFGF for 1 day. Thereafter, in the proliferation condition, the medium continuously containing bFGF was treated with MANF at the indicated concentration and cultured for 2-3 days; and in the differentiation condition, MANF was added to the medium for differentiation not containing bFGF, which was cultured for 3-7 days. In the control group (vehicle), physiological saline was added in the same volume instead of MANF."}, "[2]": {"system": "primary neural progenitor cells", "test": "GAD-GFP reporter plasmid assay of GABAergic nerve cell differentiation", "assay_type": "cell-based, rat", "conditions": "MANF 30 ng/ml", "source_text": "In order to efficiently investigate the differentiation of the primary neural progenitor cells into GABAergic nerve cells by MANF, a plasmid (GAD-GFP) capable of easily and effectively observing and detecting the differentiation into the GABAergic nerve cells with the naked eye by recombining green fluorescent protein (GFP), a fluorescent protein, into the promoter region of the human GAD gene was used. When the activity of the promoter is increased, the differentiation into GABAergic nerve cells is promoted, and whether or not the activity of the promoter is increased can be monitored by the expression level of a reporter gene operably linked thereto. Accordingly, it can be seen that the differentiation into GABAergic nerve cells is promoted when the expression level of the reporter gene is increased. In addition, it is possible to easily observe the differentiation of GABAergic nerve cells using a transcription factor that binds to the promoter.\nSpecifically, on day 3 after culturing the primary neural progenitor cells, the cells were separated from the dish with 0.05% trypsin and subcultured, and then all groups were transfected with GAD-GFP DNA. The cells were seeded in a 24-well plate and cultured in N2 medium containing 10 ng/mL bFGF for 24 hours. N2 medium for differentiation without bFGF was treated with MANF at a concentration of 30 ng/ml, and after 3 and 5 days, it was fixed and stained."}, "[3]": {"system": "IBO-administered memory impairment and autism model", "test": "Y-shaped maze experiment", "assay_type": "in vivo, rat", "conditions": "MANF-AAV-hMSC transplanted into the hippocampus of IBO rats", "method": "(§1) Memory impairment and autism models were prepared by administering IBO to the entorhinal cortex of the rats, wherein the IBO destroys granule cells of the dentate gyrus (DG) and pyramidal cells of the hippocampus, which receive nerve signals input from the entorhinal cortex. Specifically, the rats were anesthetized with equitensin (10% ethanol containing 350 mM pentobarbital sodium, 250 mM chloral hydrate, 85 mM MgSO and 40% propylene glycol). The incisor bar of a stereotaxic device (Stoelting Co., U.S.A.) was placed 3.4 mm below the interaural line, and the injection needle angle was fixed at […] right from the center of the sagittal plane. 1.5 ul of IBO (1 mg/ml) was injected into the entorhinal cortex of the rat using the stereotaxic device. The IBO was injected into three locations of first, AP: -8.4, ML: -4.8, DV: -4.6; Second, AP; -8.4, ML: -4.8, DV: 2.3; Third, AP: -8.8, ML: - 3.65, DV: -3.4 (FIG. 7).\nAfter 2-3 IBO injections, each group was randomly classified into an IBO-administrated group (negative control group), and a GFP-AAV-hMSC-administrated group (GFP-AAV) and a MANF-AAV-hMSC-administrated group […] as a control group. A rest period of one week was provided. […]"}, "[4]": {"system": "IBO-administered memory impairment and autism model", "test": "Morris water maze experiment", "assay_type": "in vivo, rat", "conditions": "MANF-AAV-hMSC transplanted into the hippocampus of IBO rats", "method": "as §1, with “1.5 ul of IBO (1 mg/ml) was injected into the entorhinal cortex of the rat using the stereotaxic device. The IBO was injected into three locations of first, AP: -8.4, ML: -4.8, DV: -4.6; Second, AP; -8.4, ML: -4.8, DV: 2.3; Third, AP: -8.8, ML: - 3.65, DV: -3.4 (FIG. 7).” left out\nThe same number of rats as in each group of Example 6-1 was subjected to the Morris water maze experiment in a round, rust-free and inner surface-white swimming pool (diameter 160 cm; height 60 cm). […] The final experiment measured the time the rat stayed where the platform was for 60 seconds after removing the platform (probe trial). Swimming time and training length were tracked and recorded using a video camera. […] The captured video pictures were analyzed with a video tracking system (Ethovision water maze program, Noldus Information Technology, Wogeningen, The Netherlands). The analyzed information included the time of swimming in the target quadrant, and the number of crossings the imaginary platform to find the removed platform."}}, "data": [{"molecule": "MANF: one of 16 or more growth factors secreted into nerve stem cells by cerebrovascular cells; amino acid sequence of SEQ ID NO: 1 (protein, MANF) MRRMWATQGLAVALALSVLPGSRALRPGDCEVCISYLGRFYQDLKDRDVTFSPATIENELIKFCREARGKENRLCYYIGATDDAATKIINEVSKPLAHHIPVEKICEKLKKKDSQICELKYDKQIDLSTVDLKKLRVKELKKILDDWGETCKGCAEKSDYIRKINELMPKYAPKAASARTDL", "values": [{"measurement": "DCX immunoblot", "setting": "[1]", "result": "significantly increased"}, {"measurement": "Sox2 immunoblot", "setting": "[1]", "result": "significantly increased"}, {"measurement": "number of NeuN-stained cells in MANF-treated group vs Con group", "setting": "[2]; 3 and 5 days", "result": "no greater increase"}, {"measurement": "GFP-positive cells (GAD promoter-GFP, GABAergic differentiation)", "setting": "[2]; 3 and 5 days, vs Con group", "result": "increased compared to the Con group"}, {"measurement": "number of NeuN-stained cells", "setting": "[2]; after 3 days of differentiation", "result": 10, "unit": "%"}, {"measurement": "number of NeuN-stained cells", "setting": "[2]; after 5 days of differentiation", "result": 50, "unit": "%"}, {"measurement": "memory ability in Y-shaped maze test", "setting": "[3]", "result": "memory improvement"}, {"measurement": "memory ability in Morris water maze test", "setting": "[4]", "result": "memory improvement"}]}]}
